Laboratory results as given in patent US12059437B2, “Methods and compositions for hematopoietic stem cell mobilization” (The Regents of the University of California, priority 2019, dated 2024).

B1: G-CSF: granulocyte-colony stimulating factor, rhGCSF (Amgen), standard mobilizing agent (protein, UniProt P09919 31-207, looked up)
Granulocyte …: TPLGPASSLPQSFLLKCLEQVRKIQGDGAALQEKLVSECATYKLCHPEELVLLGHSLGIPWAPLSSCPSQALQLAGCLSQLHSGLFLYQGLLQALEGISPELGPTLDTLQLDVADFATTIWQQMEELGMAPALQPTQGAMPAFASAFQRRAGGVLVASHLQSFLEVSYRVLRHLAQP

Experiments:
[1] = test system: HSCs (cKIT+lineage-SCA1+CD27+FLK2- cells); assay: HSC mobilization to the blood in mice (perfused blood, flow cytometry); assay type: in vivo, mouse
Procedure: FIG. 1A: Experimental design for 2-hour HSC mobilization with sildenafil citrate plus AMD3100 (top), or 5-day GCSF treatment (bottom). GCSF was administered to mice once daily for 4 days (250 μg/kg). Sildenafil citrate was administered via oral gavage (OG; 3 mg/kg) once, 1 hr prior to a single subcutaneous (SQ) injection of AMD3100 (2.5 mg/kg). […]
FIG. 2E: Experimental design for HSC mobilization with multiple daily doses of sildenafil citrate. Sildenafil citrate was administered orally (OG) at 10 mg/kg once daily for 3 days. AMD3100 (2.5 mg/kg-5 mg/kg) was injected subcutaneously (SQ) 1 hour after the third sildenafil citrate dose, followed 1 hour later by blood perfusion and analysis.
Mobilization/tissue isolation. Mice were treated with subcutaneous (SQ) injections of rhGCSF (Amgen, Thousand Oaks, CA, 250 μg/kg) or a single dose of AMD3100 (Sigma, 2.5 mg/kg or 5 mg/kg where specified), or by oral gavage (OG) with sildenafil citrate (Viagra®; Sigma; 3, 10 or 30 mg/kg) (Motta et al., 2015) as indicated. Maximum blood was obtained by perfusing the mouse with PBS/20 mM EDTA through the left ventricle, clipping the right atrium and collecting the pooled perfused blood in the chest cavity. The total blood was processed for cell counts and flow cytometry analysis, as described previously (Smith-Berdan et al., 2011, 2015). Briefly, cells were pelleted by centrifugation, washed with 2% donor calf serum in PBS to remove EDTA, then incubated with fluorescently conjugated antibodies for flow cytometry analysis or resuspended in HBSS for transplantation into conditioned recipients.
(§1) Flow cytometry. Cell labeling was performed on ice in 1× PBS with 5 mM EDTA and 2% serum. Antibodies used are listed in the supplemental table. Samples were analyzed for donor chimerism (detectable by either GFP or antibodies targeted at the CD45.1/2 locus) on an LSRII or AriaIII (Becton Dickinson, San Jose, CA), as described previously (Beaudin et al., 2016; Boyer et al., 2011, 2019; Leung et al., 2019; Smith-Berdan et al., 2011, 2015; Ugarte et al., 2015).

HSCs = assay: Transplantation of mobilized blood into irradiated recipients (reconstitution, donor chimerism); assay type: in vivo, mouse; details: compared to sildenafil citrate plus AMD3100; total donor chimerism 20 weeks post-transplantation
Text: FIG. 1E: Donor chimerism over 5 months in lethally irradiated mice transplanted with blood from mice mobilized with AMD3100 alone or with both sildenafil citrate and AMD3100 as in the schedule shown in FIG. 1A. UBC-GFP mice were used as the mobilized donor mice, enabling identification of donor derived (GFP+) cells versus the unlabeled cells of the wild-type recipients. N=5-7 mice per cohort in 3 independent experiments. Paired t-test; *p<0.05 and **p<0.01.
FIGS. 11 and 1J: Long-term multilineage engraftment upon serial transplantation of bone marrow cells from the primary recipients in FIGS. 1E-1H into secondary, lethally irradiated wt hosts. Total donor chimerism in the peripheral blood over the course of the experiment is shown on the left. Quantification of donor-derived B, T and GM cells, platelets and erythrocytes 20 weeks post-transplantation is shown on the right. Data represent three independent experiments, N=9-12 mice per cohort. Unpaired t-test; *p<0.05, **p<0.01, ***p<0.001.
Transplantation of mobilized HSPCs. […]
as §1, with “Cell labeling was performed on ice in 1× PBS with 5 mM EDTA and 2% serum. Antibodies used are listed in the supplemental table.” left out

Molecule	increase of numbers of phenotypic HSCs compared to control mice ([1]; AMD3100 single SQ injection alone or plus a single oral sildenafil citrate dose (2-hour protocol), total perfused blood) [fold]	numbers of HSCs in the blood 4 hrs post-treatment ([1]; perfusion and blood analysis 4 hours post AMD3100)	HSC mobilization ([1]; single subcutaneous dose)	numbers of phenotypic HSCs in the blood compared to sildenafil citrate plus AMD3100 ([1]; 5-day GCSF protocol)	numbers of HSCs in the bloodstream ([1]; 1 day after four consecutive days of G-CSF injections)	mobilization of HSCs and/or HPCs ([1]; FIGS. 2P and 2Q, GCSF 250 μg/kg for 4 days, AMD3100 5 mg/kg for 1 hour)	reconstitution of recipients by blood from mobilized donors (HSCs)
c1cc(CN2CCCNCCNCCCNCC2)ccc1CN1CCCNCCNCCCNCC1 [AMD3100, reference compound]	2.9	return to steady-state levels	modest, but reproducible, HSC mobilization				
B1				did not lead to significantly higher numbers of phenotypic HSCs	~3,400 HSCs/mouse	effectively mobilizes HSCs and/or HPCs	reconstituted recipients more robustly
